How the values were obtained:
HeLa Kyoto [1] = test: solubility in G1/S (NP-40 vs SDS abundance) (log2 ratio); higher = more soluble; settings: cell cycle stage: G1/S
HeLa Kyoto [2] = test: thermal stability score vs G1/S (z-score of summed log2 fold changes over temperatures); higher = more thermally stable than in G1/S
HeLa Kyoto [3] = test: solubility change mitosis vs G1/S (difference of NP-40 vs SDS log2 ratios) (log2 ratio difference); higher = more soluble in mitosis
HeLa Kyoto [4] = test: melting temperature (median over replicates), in situ; higher = more thermally stable
[5] = cell cycle stage: early G1 (4.5 h after nocodazole release)
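Throughout, for melting temperature (median over replicates), in situ: HeLa Kyoto cells synchronized by double thymidine or nocodazole block, proteins quantified by TMT10plex mass spectrometry, three independent biological replicates.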
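Throughout, for solubility change mitosis vs G1/S (difference of NP-40 vs SDS log2 ratios): synchronized HeLa Kyoto cells (double thymidine block for G1/S, nocodazole release for mitosis), protein amounts in NP-40 versus SDS lysates quantified by mass spectrometry, three biological replicates.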
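Throughout, for solubility in G1/S (NP-40 vs SDS abundance): HeLa Kyoto cells arrested at G1/S by double thymidine block, proteins quantified by TMT10plex mass spectrometry in mild NP-40 versus SDS extracts, three biological replicates.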
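Throughout, for thermal stability score vs G1/S (z-score of summed log2 fold changes over temperatures): synchronized HeLa Kyoto cells, proteins quantified by TMT10plex mass spectrometry, three biological replicates, mitosis taken 0.5 h after nocodazole release, G1/S directly after double thymidine block.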

Sequence | solubility in G1/S (log2) (HeLa Kyoto [1]) | thermal stability score (HeLa Kyoto [2]; [5]) | thermal stability score (HeLa Kyoto [2]; cell cycle stage: mitosis) | solubility change mitosis (log2) (HeLa Kyoto [3]) | melting temperature (HeLa Kyoto [4]; cell cycle stage: G1/S) [°C] | melting temperature (HeLa Kyoto [4]; cell cycle stage: mitosis) [°C]
MAAPRAGRGAGWSLRAWRALGGIRWGRRPRLTPDLRALLTSGTSDPRARVTYGTPSLWARLSVGVTEPRACLTSGTPGPRAQLTAVTPDTRTREASENSGTRSRAWLAVALGAGGAVLLLLWGGGRGPPAVLAAVPSPPPASPRSQYNFIADVVEKTAPAVVYIEILDRHPFLGREVPISNGSGFVVAADGLIVTNAHVVADRRRVRVRLLSGDTYEAVVTAVDPVADIATLRIQTKEPLPTLPLGRSADVRQGEFVVAMGSPFALQNTITSGIVSSAQRPARDLGLPQTNVEYIQTDAAIDFGNSGGPLVNLDGEVIGVNTMKVTAGISFAIPSDRLREFLHRGEKKNSSSGISGSQRRYIGVMMLTLSPSILAELQLREPSFPDVQHGVLIHKVILGSPAHRAGLRPGDVILAIGEQMVQNAEDVYEAVRTQSQLAVQIRRGRETLTLYVTPEVTE [HTRA2] | 0.168 | -2.4 | -3.14 | 0.028 | 56.9 | 56.5
MAAPRPPPARLSGVMVPAPIQDLEALRALTALFKEQRNRETAPRTIFQRVLDILKKSSHAVELACRDPSQVENLASSLQLITECFRCLRNACIECSVNQNSIRNLDTIGVAVDLILLFRELRVEQESLLTAFRCGLQFLGNIASRNEDSQSIVWVHAFPELFLSCLNHPDKKIVAYSSMILFTSLNHERMKELEENLNIAIDVIDAYQKHPESEWPFLIITDLFLKSPELVQAMFPKLNNQERVTLLDLMIAKITSDEPLTKDDIPVFLRHAELIASTFVDQCKTVLKLASEEPPDDEEALATIRLLDVLCEMTVNTELLGYLQVFPGLLERVIDLLRVIHVAGKETTNIFSNCGCVRAEGDISNVANGFKSHLIRLIGNLCYKNKDNQDKVNELDGIPLILDNCNISDSNPFLTQWVIYAIRNLTEDNSQNQDLIAKMEEQGLADASLLKKVGFEVEKKGEKLILKSTRDTPKP [ATXN10] | 0.202 | 0.984 | 1.43 | -0.135 | 51.9 | 51.1
MAAPSGGWNGVGASLWAALLLGAVALRPAEAVSEPTTVAFDVRPGGVVHSFSHNVGPGDKYTCMFTYASQGGTNEQWQMSLGTSEDHQHFTCTIWRPQGKSYLYFTQFKAEVRGAEIEYAMAYSKAAFERESDVPLKTEEFEVTKTAVAHRPGAFKAELSKLVIVAKASRTEL [MYDGF] | 0.19 | 2.14 | 0.789 | -0.192 | 57.7 | 57.7
MAAQRIRAANSNGLPRCKSEGTLIDLSEGFSETSFNDIKVPSPSALLVDNPTPFGNAKEVIAIKDYCPTNFTTLKFSKGDHLYVLDTSGGEWWYAHNTTEMGYIPSSYVQPLNYRNSTLSDSGMIDNLPDSPDEVAKELELLGGWTDDKKVPGRMYSNNPFWNGVQTNPFLNGNVPVMPSLDELNPKSTVDLLLFDAGTSSFTESSSATTNSTGNIFDELPVTNGLHAEPPVRRDNPFFRSKRSYSLSELSVLQAKSDAPTSSSFFTGLKSPAPEQFQSREDFRTAWLNHRKLARSCHDLDLLGQSPGWGQTQAVETNIVCKLDSSGGAVQLPDTSISIHVPEGHVAPGETQQISMKALLDPPLELNSDRSCSISPVLEVKLSNLEVKTSIILEMKVSAEIKNDLFSKSTVGLQCLRSDSKEGPYVSVPLNCSCGDTVQAQLHNLEPCMYVAVVAHGPSILYPSTVWDFINKKVTVGLYGPKHIHPSFKTVVTIFGHDCAPKTLLVSEVTRQAPNPAPVALQLWGKHQFVLSRPQDLKVCMFSNMTNYEVKASEQAKVVRGFQLKLGKVSRLIFPITSQNPNELSDFTLRVQVKDDQEAILTQFCVQTPQPPPKSAIKPSGQRRFLKKNEVGKIILSPFATTTKYPTFQDRPVSSLKFGKLLKTVVRQNKNHYLLEYKKGDGIALLSEERVRLRGQLWTKEWYIGYYQGRVGLVHTKNVLVVGRARPSLCSGPELSTSVLLEQILRPCKFLTYIYASVRTLLMENISSWRSFADALGYVNLPLTFFCRAELDSEPERVASVLEKLKEDCNNTENKERKSFQKELVMALLKMDCQGLVVRLIQDFVLLTTAVEVAQRWRELAEKLAKVSKQQMDAYESPHRDRNGVVDSEAMWKPAYDFLLTWSHQIGDSYRDVIQELHLGLDKMKNPITKRWKHLTGTLILVNSLDVLRAAAFSPADQDDFVI [SH3BP4] | -0.0978 | 0.727 | 0.411 | -0.133 | 50.4 | 49.2
MAAQSAPKVVLKSTTKMSLNERFTNMLKNKQPTPVNIRASMQQQQQLASARNRRLAQQMENRPSVQAALKLKQSLKQRLGKSNIQARLGRPIGALARGAIGGRGLPIIQRGLPRGGLRGGRATRTLLRGGMSLRGQNLLRGGRAVAPRMGLRRGGVRGRGGPGRGGLGRGAMGRGGIGGRGRGMIGRGRGGFGGRGRGRGRGRGALARPVLTKEQLDNQLDAYMSKTKGHLDAELDAYMAQTDPETND [CHTOP] | -0.246 | -2.91 | -0.126 | 0.761 | 51 | 51.7
MAAQSSLYNDDRNLLRIREKERRNQEAHQEKEAFPEKIPLFGEPYKTAKGDELSSRIQNMLGNYEEVKEFLSTKSHTHRLDASENRLGKPKYPLIPDKGSSIPSSSFHTSVHHQSIHTPASGPLSVGNISHNPKMAQPRTEPMPSLHAKSCGPPDSQHLTQDRLGQEGFGSSHHKKGDRRADGDHCASVTDSAPERELSPLISLPSPVPPLSPIHSNQQTLPRTQGSSKVHGSSNNSKGYCPAKSPKDLAVKVHDKETPQDSLVAPAQPPSQTFPPPSLPSKSVAMQQKPTAYVRPMDGQDQAPSESPELKPLPEDYRQQTFEKTDLKVPAKAKLTKLKMPSQSVEQTYSNEVHCVEEILKEMTHSWPPPLTAIHTPSTAEPSKFPFPTKDSQHVSSVTQNQKQYDTSSKTHSNSQQGTSSMLEDDLQLSDSEDSDSEQTPEKPPSSSAPPSAPQSLPEPVASAHSSSAESESTSDSDSSSDSESESSSSDSEENEPLETPAPEPEPPTTNKWQLDNWLTKVSQPAAPPEGPRSTEPPRRHPESKGSSDSATSQEHSESKDPPPKSSSKAPRAPPEAPHPGKRSCQKSPAQQEPPQRQTVGTKQPKKPVKASARAGSRTSLQGEREPGLLPYGSRDQTSKDKPKVKTKGRPRAAASNEPKPAVPPSSEKKKHKSSLPAPSKALSGPEPAKDNVEDRTPEHFALVPLTESQGPPHSGSGSRTSGCRQAVVVQEDSRKDRLPLPLRDTKLLSPLRDTPPPQSLMVKITLDLLSRIPQPPGKGSRQRKAEDKQPPAGKKHSSEKRSSDSSSKLAKKRKGEAERDCDNKKIRLEKEIKSQSSSSSSSHKESSKTKPSRPSSQSSKKEMLPPPPVSSSSQKPAKPALKRSRREADTCGQDPPKSASSTKSNHKDSSIPKQRRVEGKGSRSSSEHKGSSGDTANPFPVPSLPNGNSKPGKPQVKFDKQQADLHMREAKKMKQKAELMTDRVGKAFKYLEAVLSFIECGIATESESQSSKSAYSVYSETVDLIKFIMSLKSFSDATAPTQEKIFAVLCMRCQSILNMAMFRCKKDIAIKYSRTLNKHFESSSKVAQAPSPCIASTGTPSPLSPMPSPASSVGSQSSAGSVGSSGVAATISTPVTIQNMTSSYVTITSHVLTAFDLWEQAEALTRKNKEFFARLSTNVCTLALNSSLVDLVHYTRQGFQQLQELTKTP [AFF1] | -0.222 | 0.0483 | -0.483 | 0.121 | 49.6 | 51.8
MAARVLRARGAAWAGGLLQRAAPCSLLPRLRTWTSSSNRSREDSWLKSLFVRKVDPRKDAHSNLLAKKETSNLYKLQFHNVKPECLEAYNKICQEVLPKIHEDKHYPCTLVGTWNTWYGEQDQAVHLWRYEGGYPALTEVMNKLRENKEFLEFRKARSDMLLSRKNQLLLEFSFWNEPVPRSGPNIYELRSYQLRPGTMIEWGNYWARAIRFRQDGNEAVGGFFSQIGQLYMVHHLWAYRDLQTREDIRNAAWHKHGWEELVYYTVPLIQEMESRIMIPLKTSPLQ [GBAS] | 0.0162 | -0.626 | -0.959 | -0.0463 | 53.7 | 53.3
MAASASAAAGEEDWVLPSEVEVLESIYLDELQVIKGNGRTSPWEIYITLHPATAEDQDSQYVCFTLVLQVPAEYPHEVPQISIRNPRGLSDEQIHTILQVLGHVAKAGLGTAMLYELIEKGKEILTDNNIPHGQCVICLYGFQEKEAFTKTPCYHYFHCHCLARYIQHMEQELKAQGQEQEQERQHATTKQKAVGVQCPVCREPLVYDLASLKAAPEPQQPMELYQPSAESLRQQEERKRLYQRQQERGGIIDLEAERNRYFISLQQPPAPAEPESAVDVSKGSQPPSTLAAELSTSPAVQSTLPPPLPVATQHICEKIPGTRSNQQRLGETQKAMLDPPKPSRGPWRQPERRHPKGGECHAPKGTRDTQELPPPEGPLKEPMDLKPEPHSQGVEGPPQEKGPGSWQGPPPRRTRDCVRWERSKGRTPGSSYPRLPRGQGAYRPGTRRESLGLESKDGS [RNF25] | 0.537 | -0.22 | -0.474 | 0.00785 | 52.7 | 52.7
MAASCVLLHTGQKMPLIGLGTWKSEPGQVKAAVKYALSVGYRHIDCAAIYGNEPEIGEALKEDVGPGKAVPREELFVTSKLWNTKHHPEDVEPALRKTLADLQLEYLDLYLMHWPYAFERGDNPFPKNADGTICYDSTHYKETWKALEALVAKGLVQALGLSNFNSRQIDDILSVASVRPAVLQVECHPYLAQNELIAHCQARGLEVTAYSPLGSSDRAWRDPDEPVLLEEPVVLALAEKYGRSPAQILLRWQVQRKVICIPKSITPSRILQNIKVFDFTFSPEEMKQLNALNKNWRYIVPMLTVDGKRVPRDAGHPLYPFNDPY [AKR1A1] | 0.534 | -0.223 | -1.09 | -0.00767 | 52.1 | 52.7
MAASEAAVVSSPSLKTDTSPVLETAGTVAAMAATPSARAAAAVVAAAARTGSEARVSKAALATKLLSLSGVFAVHKPKGPTSAELLNRLKEKLLAEAGMPSPEWTKRKKQTLKIGHGGTLDSAARGVLVVGIGSGTKMLTSMLSGSKRYTAIGELGKATDTLDSTGRVTEEKPYDKITQEDIEGILQKFTGNIMQVPPLYSALKKDGQRLSTLMKRGEVVEAKPARPVTVYSISLQKFQPPFFTLDVECGGGFYIRSLVSDIGKELSSCANVLELTRTKQGPFTLEEHALPEDKWTIDDIAQSLEHCSSLFPAELALKKSKPESNEQVLSCEYITLNEPKREDDVIKTC [TRUB1] | 0.549 | 1.48 | 1.46 | -0.0378 | 50.2 | 50.2
MAASEVAGVVANAPSPPESSSLCASKSDEGLPDGLSTKDSAQKQKNSPLLSVSSQTITKENNRNVHLEHSEQNPGSSAGDTSAAHQVVLGENLIATALCLSGSGSQSDLKDVASTAGEEGDTSLRESLHPVTRSLKAGCHTKQLASRNCSEEKSPQTSILKEGNRDTSLDFRPVVSPANGVEGVRVDQDDDQDSSSLKLSQNIAVQTDFKTADSEVNTDQDIEKNLDKMMTERTLLKERYQEVLDKQRQVENQLQVQLKQLQQRREEEMKNHQEILKAIQDVTIKREETKKKIEKEKKEFLQKEQDLKAEIEKLCEKGRREVWEMELDRLKNQDGEINRNIMEETERAWKAEILSLESRKELLVLKLEEAEKEAELHLTYLKSTPPTLETVRSKQEWETRLNGVRIMKKNVRDQFNSHIQLVRNGAKLSSLPQIPTPTLPPPPSETDFMLQVFQPSPSLAPRMPFSIGQVTMPMVMPSADPRSLSFPILNPALSQPSQPSSPLPGSHGRNSPGLGSLVSPHGPHMPPAASIPPPPGLGGVKASAETPRPQPVDKLEKILEKLLTRFPQCNKAQMTNILQQIKTARTTMAGLTMEELIQLVAARLAEHERVAASTQPLGRIRALFPAPLAQISTPMFLPSAQVSYPGRSSHAPATCKLCLMCQKLVQPSELHPMACTHVLHKECIKFWAQTNTNDTCPFCPTLK [RNF214] | 0.486 | -0.221 | -0.95 | -0.0773 | 49.8 | 51.5

From the supplement of paper PMC5998384
